From article doi:10.1101/2021.05.31.445667

Test system: ZAP-S
Assay: MST

SARS-CoV-2 -1PRF pseudoknot RNA (WT)
Kd: 121 nM
